Measured values reported in the supplement of paper PMC10567573.

B1: GLTSCR2 (parent)
chain: YNPSFEDHQTLLSAAHEVELQRQK
B2: VPS39 (parent)
chain: QQVKCIITEEKVCMVCKKKIGNSA

Variants of: B1
Assay: protein stability index of a GFP-peptide fusion (GPS, HEK-293T) (PSI 1-6); higher = more stable
Conditions: c terminus: a fixed tail appended
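Note: lentivirally expressed fusions sorted by FACS into six bins by GFP to DsRed ratio, PSI derived from sequencing read proportions per bin multiplied by bin number.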

Protein stability index of substitutions, site by site:
T10: A 3.39, G 3.87, C 3.19, N 4.01, E 4.44, M 2.87, V 3.53, L 2.71, K 2.35, Q 3.47, Y 3.03, I 3.05, H 3.37, W 2.65, S 3.94, F 2.61, R 2.59, D 4.32, P 3.7
Q9: F 2.45, N 4.1, H 3.68, P 4.08, W 2.2, E 4.45, T 3.56, C 3.06, G 4.42, A 3.79, M 2.72, L 3.11, D 4.5, R 3.13, S 4.09, K 3.12, Y 3.36, I 2.6, V 3.24
N2: V 1.6, R 4.29, K 4.28, M 4.34, P 4.76, E 4.46, D 5.66, Q 4.47, L 5.05, I 3.38, W 4.2, H 2.97, Y 4.29, S 3.91, T 3.36, A 2.13, C 2.74, G 4.39, F 3.81
F5: G 4.06, V 3.83, I 4.07, E 4.9, Q 4.62, M 3.5, P 4.02, H 4.09, A 4.22, S 3.88, C 4, K 2.48, Y 3.68, W 3.07, N 4.43, D 5.24, T 4.28, L 3.43, R 3.96
A15: C 3.3, E 4.53, S 4.07, N 3.85, K 3.96, R 3.56, L 2, T 3.75, M 2.93, D 4.54, Q 3.82, P 3.61, G 4.28, V 2.53, W 2.3, F 2.47, I 2.29, H 3.56
A14: I 3.02, H 3.64, Y 2.65, W 2.51, C 2.53, D 4.29, F 2.53, N 4.04, S 4.2, Q 3.86, T 4.04, G 3.52, R 3.48, L 3.09, K 3.92, E 4.63, V 3.41, M 3.62, P 4.08
H8: G 4.05, Y 1.54, R 3.66, E 4.4, V 2.33, Q 3.84, M 2.72, W 1.88, P 3.86, A 3.79, S 4.2, C 2.67, N 4.29, D 4.81, K 3.62, F 1.99, I 2.53, L 2.22, T 3.11
L12: Q 4.2, V 4.15, E 5.25, A 4.41, S 4.79, F 2.35, C 4.02, T 4.62, Y 3.63, R 4.44, W 1.58, G 4.23, M 4.29, I 3.86, D 5.35, K 4.45, H 4.61, P 5.16, N 4.54
S13: F 2.66, R 2.56, C 3.25, Q 3.66, G 3.29, W 1.51, Y 2.75, D 3.88, E 3.2, H 3.47, V 3.2, M 3.08, L 2.9, K 2.58, I 2.45, A 3.21, P 4.2, T 4.17, N 3.66
Y1: N 4.71, D 5.25, K 4.87, P 5.16, Q 5.07, I 4.74, T 4.67, H 5.16, W 4.16, C 4.78, S 5.38, A 4.93, M 4.96, G 5.36, R 5.37, E 4.87, L 5.03, F 3.65, V 5.11
D7: R 3.7, V 2.92, H 3.67, T 3.55, S 4.11, K 3.62, C 4.08, E 3.46, M 3.23, F 2.81, I 3.21, Y 3.52, G 4.17, A 3.72, L 3.35, N 3.98, P 4.13, Q 4.27, W 1.92
S4: V 4.02, Y 4.27, A 4.1, F 4, P 4.69, E 4.72, I 3.82, L 3.95, H 4.26, Q 4.28, C 4.07, T 3.79, D 4.72, R 4.65, W 3.67, K 4.17, N 4.48, M 4.21, G 3.88
P3: V 3.73, N 4.45, R 3.85, Y 3.97, G 4.35, Q 5.13, L 4.3, T 5.01, H 4.67, K 4.3, A 4.25, M 4.08, S 4.28, I 3.82, F 4.06, E 5.06, W 1.9, C 3.37, D 4.32
L11: A 4.7, C 4.26, G 4.58, V 3.98, T 5.29, P 4.92, W 2.38, Y 3.25, K 4.71, S 4.95, H 4.57, R 4.19, Q 4.88, E 5.13, D 5.01, M 4.19, I 2.96, N 4.96, F 2.81
E6: W 2.75, D 4.14, P 3.76, S 3.15, G 3.42, F 2.51, I 3.12, M 2.38, Q 2.58, C 3.25, T 3.09, K 2.72, H 3.18, V 3, Y 2.67, R 2.57, L 3.04, N 3.33, A 3.1

Variants of: B2
Assay: as above
Conditions: c terminus: a fixed tail appended

Protein stability index of substitutions, site by site:
N22: W 1.81, K 2.79, R 1.84, L 2.57, I 1.75, H 2.25, F 2, Y 1.99, S 2.62, G 1.42, V 2.11, M 2.75, Q 3.38, T 2.29
A24: V 2.24, L 1.74, E 2.48, Y 2.57, W 2.07, F 2.1, T 2.93, M 2.54, P 3.03, G 2.29, K 3.03, S 2.37, N 2.84, Q 2.79, D 3.35, I 2.49, C 3.03, H 2.23
S23: D 3.6, A 3.52, H 2.98, V 2.19, I 1.73, Y 2.41, Q 2.5, K 3.09, R 2.77, C 3.62, F 1.95, T 2.78, P 2.4, N 2.41, L 1.45, E 4.07, W 1.82, G 3.05
